{"source": "paper doi:10.1101/2022.07.01.498456", "origin": "cited, not measured here", "key": {"Glu35": {"molecular_target": "Glu35 (UniProt position 53, CAAKFESNFNT)", "assay": "other", "conditions": "native HEWL, ligand-free (inferred; not explicitly stated)"}, "Asp52": {"molecular_target": "Asp52 (UniProt position 70, TDGSTDYGILQ)", "assay": "other", "conditions": "native HEWL, ligand-free (inferred; not explicitly stated)"}}, "data": [{"substance": "Hen egg-white lysozyme (lysozyme C) (Gallus gallus)", "values": [{"measurement": "pKa", "setting": "Glu35", "result": 6.2}, {"measurement": "pKa", "setting": "Asp52", "result": 3.6}]}]}
